In the assay the target is GST-TβR-I (GST fused to the cytoplasmic part, residues 148-503, of constitutively active TβR-I T204D, FLAG-tagged at the C-terminus), P36897. The experiment in a line: cell-based or functional assay.

No end group written: not given here.

Sequence of GST-TβR-I (GST fused to the cytoplasmic part, residues 148-503, of constitutively active TβR-I T204D, FLAG-tagged at the C-terminus), P36897 (P36897 148-503 T204D, form in doubt): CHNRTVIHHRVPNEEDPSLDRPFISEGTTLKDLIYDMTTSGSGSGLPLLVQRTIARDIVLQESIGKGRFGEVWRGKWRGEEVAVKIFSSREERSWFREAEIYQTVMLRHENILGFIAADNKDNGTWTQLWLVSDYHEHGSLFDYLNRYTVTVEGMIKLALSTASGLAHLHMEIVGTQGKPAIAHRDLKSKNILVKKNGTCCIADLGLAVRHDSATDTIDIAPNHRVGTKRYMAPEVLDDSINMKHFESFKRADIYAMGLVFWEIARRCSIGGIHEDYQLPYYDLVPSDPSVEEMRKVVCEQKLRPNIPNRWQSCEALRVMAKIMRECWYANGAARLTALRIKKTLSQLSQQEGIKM

B1: antp-Sm2A peptide (penetratin fused to the C-terminus of Smad2 with the two phosphorylatable serines changed to alanine) (peptide)
peptide: RQIKIWFQNRRMKWKKTQMGSPSVRCSAMA-OH
With B1, the peptide concentration at which the effect was observed, in vitro kinase assay was 10 µM and the peptide concentration of maximal inhibition, in vitro kinase assay worked out at 200 µM.

B2: antp-Sm2S peptide (penetratin fused to the C-terminus of wild-type Smad2) (peptide)
peptide: RQIKIWFQNRRMKWKKTQMGSPSVRCSSMS-OH
With B2, the peptide concentration at which the effect was observed, in vitro kinase assay came out at 10 µM and the peptide concentration of maximal inhibition, in vitro kinase assay stood at 200 µM.

Values taken from patent publication US20050136043A1, “TGFbeta signaling inhibitors” (Ludwig Institute for Cancer Research, priority 2003, published 2005).
